Results from US11541126B1, “Anti-ASGR1 antibody TLR8 agonist comprising conjugates and uses thereof” (Silverback Therapeutics, Inc., priority 2020, dated 2023).

T1: HepG2 cells (which express ASGR1) (Homo sapiens, UniProt P07306)
T1 construct: endogenous in cells; host or cells: HepG2
T1 sequence (P07306 1-291): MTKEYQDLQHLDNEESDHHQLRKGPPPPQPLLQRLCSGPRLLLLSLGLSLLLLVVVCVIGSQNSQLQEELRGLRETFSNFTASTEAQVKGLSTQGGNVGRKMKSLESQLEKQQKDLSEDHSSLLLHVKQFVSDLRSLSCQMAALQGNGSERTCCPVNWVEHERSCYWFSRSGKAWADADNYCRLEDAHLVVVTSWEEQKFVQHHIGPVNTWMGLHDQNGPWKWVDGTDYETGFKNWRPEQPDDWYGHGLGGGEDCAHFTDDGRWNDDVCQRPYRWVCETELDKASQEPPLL


Target: T1, HepG2 cells (which express ASGR1)
Assay: Guava HepG2 cell binding screen of humanized anti-ASGR1 clones
Set-up: unit not given here
Details: humanized G2D clones (Table 5); two numbers per cell, not explained
Method: Hybridomas producing monoclonal antibodies (mAbs) specific for human ASGR1 were prepared from Balb/C mice immunized with ASGR1-AviHis at a service provider using their propriety protocol. Antibody heavy and light chain sequences were obtained, amplified, and cloned. Clone supernatants containing the expressed mAbs were screened for binding to a human ASGR1-IgG1Fc fusion protein, and those with a positive signal as measured by enzyme linked immunosorbent assay (ELISA) were screened for cell binding on HepG2 cells (which express ASGR1).

| Guava HepG2 Screen | Molecule |
| --- | --- |
| 164/85 | hzG2D-33: humanized G2D clone; "G2D VL region ... of clones 1-16, 19-21, 26-29, 31, and 33 ... grafted into the human germline sequence VKI-L1 with JK4" (antibody, V domains shown, Synthetic sequence hzG2.51D VH R66K, V67A, T68S, I69L, R71V, R84T, A93T, R94S; Synthetic sequence hzG2D VLa) VH: QVQLVQSGAEVKKPGASVKVSCKASGYTFTGYYMHWVRQAPGQRLEWMGRINPNNGATNYNQNFKDKASLTVDTSASTAYMELSSLTSEDTAVYYCTSVNFYYWGQGTTVTVSS VL: DIQMTQSPSSLSASVGDRVTITCKASQVINSYLSWFQQKPGKAPKSLIYRANTLVDGVPSRFSGSGSGTDFTLTISSLQPEDFATYYCLQYAEFPYTFGGGTKVEIK |
| 155/117 | hzG2D-9: humanized G2D clone; "G2D VL region ... of clones 1-16, 19-21, 26-29, 31, and 33 ... grafted into the human germline sequence VKI-L1 with JK4" (antibody, V domains shown, Synthetic sequence hzG2.40D VH R66K, V67A, A93T, R94S, V109L; Synthetic sequence hzG2D VLa) VH: QVQLVQSGAEVKKPGASVKVSCKASGYTFTGYYMHWVRQAPGQRLEWMGRINPNNGATNYNQNFKDKATITRDTSASTAYMELSSLRSEDTAVYYCTSVNFYYWGQGTTLTVSS VL: DIQMTQSPSSLSASVGDRVTITCKASQVINSYLSWFQQKPGKAPKSLIYRANTLVDGVPSRFSGSGSGTDFTLTISSLQPEDFATYYCLQYAEFPYTFGGGTKVEIK |
| 55/22 | hzG2D-4: humanized G2D clone; "G2D VL region ... of clones 1-16, 19-21, 26-29, 31, and 33 ... grafted into the human germline sequence VKI-L1 with JK4" (antibody, V domains shown, Synthetic sequence hzG2.39D VH R66K, V67A, V109L; Synthetic sequence hzG2D VLa) VH: QVQLVQSGAEVKKPGASVKVSCKASGYTFTGYYMHWVRQAPGQRLEWMGRINPNNGATNYNQNFKDKATITRDTSASTAYMELSSLRSEDTAVYYCARVNFYYWGQGTTLTVSS VL: DIQMTQSPSSLSASVGDRVTITCKASQVINSYLSWFQQKPGKAPKSLIYRANTLVDGVPSRFSGSGSGTDFTLTISSLQPEDFATYYCLQYAEFPYTFGGGTKVEIK |
| 91/55 | hzG2D-5: humanized G2D clone; "G2D VL region ... of clones 1-16, 19-21, 26-29, 31, and 33 ... grafted into the human germline sequence VKI-L1 with JK4" (antibody, V domains shown, Synthetic sequence hzG2.8D VH T28S, A93T, R94S, V109L; Synthetic sequence hzG2D VLa) VH: QVQLVQSGAEVKKPGASVKVSCKASGYSFTGYYMHWVRQAPGQRLEWMGRINPNNGATNYNQNFKDRVTITRDTSASTAYMELSSLRSEDTAVYYCTSVNFYYWGQGTTLTVSS VL: DIQMTQSPSSLSASVGDRVTITCKASQVINSYLSWFQQKPGKAPKSLIYRANTLVDGVPSRFSGSGSGTDFTLTISSLQPEDFATYYCLQYAEFPYTFGGGTKVEIK |
| 46/22 | hzG2D-7: humanized G2D clone; "G2D VL region ... of clones 1-16, 19-21, 26-29, 31, and 33 ... grafted into the human germline sequence VKI-L1 with JK4" (antibody, V domains shown, Synthetic sequence hzG2.2D VH T28S, R66K, V67A, V109L; Synthetic sequence hzG2D VLa) VH: QVQLVQSGAEVKKPGASVKVSCKASGYSFTGYYMHWVRQAPGQRLEWMGRINPNNGATNYNQNFKDKATITRDTSASTAYMELSSLRSEDTAVYYCARVNFYYWGQGTTLTVSS VL: DIQMTQSPSSLSASVGDRVTITCKASQVINSYLSWFQQKPGKAPKSLIYRANTLVDGVPSRFSGSGSGTDFTLTISSLQPEDFATYYCLQYAEFPYTFGGGTKVEIK |
| 194/109 | hzG2D-34: humanized G2D clone; "G2D VL region ... of clones 22, 23, 30, 32, and 34-37 ... grafted into the human germline sequence VKI-O2 with JK4" (antibody, V domains shown, Synthetic sequence hzG2.51D VH R66K, V67A, T68S, I69L, R71V, R84T, A93T, R94S; Synthetic sequence hzG2D VLb) VH: QVQLVQSGAEVKKPGASVKVSCKASGYTFTGYYMHWVRQAPGQRLEWMGRINPNNGATNYNQNFKDKASLTVDTSASTAYMELSSLTSEDTAVYYCTSVNFYYWGQGTTVTVSS VL: DIQMTQSPSSLSASVGDRVTITCKASQVINSYLSWYQQKPGKAPKLLIYRANTLVDGVPSRFSGSGSGTDFTLTISSLQPEDFATYYCLQYAEFPYTFGGGTKVEIK |
| 31/21 | hzG2D-8: humanized G2D clone; "G2D VL region ... of clones 1-16, 19-21, 26-29, 31, and 33 ... grafted into the human germline sequence VKI-L1 with JK4" (antibody, V domains shown, Synthetic sequence hzG2.6D VH T28S, T68S, I69L, R71V, V109L; Synthetic sequence hzG2D VLa) VH: QVQLVQSGAEVKKPGASVKVSCKASGYSFTGYYMHWVRQAPGQRLEWMGRINPNNGATNYNQNFKDRVSLTVDTSASTAYMELSSLRSEDTAVYYCARVNFYYWGQGTTLTVSS VL: DIQMTQSPSSLSASVGDRVTITCKASQVINSYLSWFQQKPGKAPKSLIYRANTLVDGVPSRFSGSGSGTDFTLTISSLQPEDFATYYCLQYAEFPYTFGGGTKVEIK |
| 38/20 | hzG2D-2: humanized G2D clone; "G2D VL region ... of clones 1-16, 19-21, 26-29, 31, and 33 ... grafted into the human germline sequence VKI-L1 with JK4" (antibody, V domains shown, Synthetic sequence hzG2.1D VH T28S, V109L; Synthetic sequence hzG2D VLa) VH: QVQLVQSGAEVKKPGASVKVSCKASGYSFTGYYMHWVRQAPGQRLEWMGRINPNNGATNYNQNFKDRVTITRDTSASTAYMELSSLRSEDTAVYYCARVNFYYWGQGTTLTVSS VL: DIQMTQSPSSLSASVGDRVTITCKASQVINSYLSWFQQKPGKAPKSLIYRANTLVDGVPSRFSGSGSGTDFTLTISSLQPEDFATYYCLQYAEFPYTFGGGTKVEIK |
| 39/23 | hzG2D-6: humanized G2D clone; "G2D VL region ... of clones 1-16, 19-21, 26-29, 31, and 33 ... grafted into the human germline sequence VKI-L1 with JK4" (antibody, V domains shown, Synthetic sequence hzG2.43D VH T68S, I69L, R71V, V109L; Synthetic sequence hzG2D VLa) VH: QVQLVQSGAEVKKPGASVKVSCKASGYTFTGYYMHWVRQAPGQRLEWMGRINPNNGATNYNQNFKDRVSLTVDTSASTAYMELSSLRSEDTAVYYCARVNFYYWGQGTTLTVSS VL: DIQMTQSPSSLSASVGDRVTITCKASQVINSYLSWFQQKPGKAPKSLIYRANTLVDGVPSRFSGSGSGTDFTLTISSLQPEDFATYYCLQYAEFPYTFGGGTKVEIK |
| 131/95 | hzG2D-3: humanized G2D clone; "G2D VL region ... of clones 1-16, 19-21, 26-29, 31, and 33 ... grafted into the human germline sequence VKI-L1 with JK4" (antibody, V domains shown, Synthetic sequence hzG2.45D VH A93T, R94S, V109L; Synthetic sequence hzG2D VLa) VH: QVQLVQSGAEVKKPGASVKVSCKASGYTFTGYYMHWVRQAPGQRLEWMGRINPNNGATNYNQNFKDRVTITRDTSASTAYMELSSLRSEDTAVYYCTSVNFYYWGQGTTLTVSS VL: DIQMTQSPSSLSASVGDRVTITCKASQVINSYLSWFQQKPGKAPKSLIYRANTLVDGVPSRFSGSGSGTDFTLTISSLQPEDFATYYCLQYAEFPYTFGGGTKVEIK |
| 149/63 | hzG2D-10: humanized G2D clone; "G2D VL region ... of clones 1-16, 19-21, 26-29, 31, and 33 ... grafted into the human germline sequence VKI-L1 with JK4" (antibody, V domains shown, Synthetic sequence hzG2.44D VH T68S, I69L, R71V, A93T, R94S, V109L; Synthetic sequence hzG2D VLa) VH: QVQLVQSGAEVKKPGASVKVSCKASGYTFTGYYMHWVRQAPGQRLEWMGRINPNNGATNYNQNFKDRVSLTVDTSASTAYMELSSLRSEDTAVYYCTSVNFYYWGQGTTLTVSS VL: DIQMTQSPSSLSASVGDRVTITCKASQVINSYLSWFQQKPGKAPKSLIYRANTLVDGVPSRFSGSGSGTDFTLTISSLQPEDFATYYCLQYAEFPYTFGGGTKVEIK |
